Data: patent US20240360228A1 (BIOLEGEND, published 2024)
One block for each molecule: values may come before it.

Assays:
human CCR8 [1] = target: T1, human CCR8 (human, UniProt P51685 1-355); experiment: flow, PBMC CCR8+CD3+; PE-L263G8 staining after isotype block
T1 construct: Native CCR8 on human PBMC (CCR8+ CD3+ or CCR8+ CD4+ lymphocytes); also called chemokine (C-C motif) receptor 8

[2] = target: human chemokine (C-C motif) receptor 8 (CCR8) (human) (UniProt P51685); experiment: flow cytometry blocking, PBMC CCR8+ CD4+ cells; competitor PE-AB6 (its MFI is read)
human CCR8 [3] = target: T1, human CCR8; experiment: flow blocking, PBMC CCR8+CD3+; competitor PE-433H
Experimental: (§1) For blocking studies, 100 μL of the cell suspension were incubated with 10 μg purified isotype control, AB1, AB2, AB3, AB4, AB5, AB8, AB9, AB10, AB11, AB12, AB13, AB14, AB15, and Commercial ABI antibodies, or isotype control, as blocking agents.
(§2) After incubation with the blocking agent, the cells were incubated with 0.25 μg of the indicated PE-conjugated antibody plus anti-human CD4 APC or anti-human CD3 for another 15 minutes in the dark and then washed 2 times with Cell Staining Buffer, and acquired in a FACSCanto II flow cytometer (BD Biosciences); the data was analyzed using FCS Express (De Novo Software); MFI correspond to the CCR8+ CD4+ lymphocytes or CCR8+ CD3+ lymphocytes.
(§3) Percentage original MFI was calculated by dividing the MFI of samples blocked with AB1, AB2, AB3, AB4, AB5, AB6, AB7, AB8, AB9, AB10, AB11, AB12, AB13, AB14, AB15, and Commercial ABI antibodies, by the MFI of samples blocked with the corresponding isotype control. This value was subtracted from 100 to get a blocking percentage. The formula is shown below: […]

human CCR8 [4] = target: T1, human CCR8; experiment: flow blocking, PBMC CCR8+CD3+; competitor PE-AB5
Experimental: as §1, §2, §3

human CCR8 [5] = target: T1, human CCR8; experiment: flow blocking, PBMC CCR8+CD3+; competitor PE-AB6
Experimental: as §1, §2, §3

human CCR8 [6] = target: T1, human CCR8; experiment: flow blocking, PBMC CCR8+CD3+; competitor PE-AB10
Experimental: as §1, §2, §3

human CCR8 [7] = target: T1, human CCR8; experiment: flow blocking, PBMC CCR8+CD4+; competitor PE-AB11
In short: (§4)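 Unlabeled antibodies (10 μg) or isotype control are preincubated with the cells as blockers. A PE-conjugated competitor (0.25 μg) is then added with anti-CD4 or anti-CD3 for 15 min in the dark, and MFI on CCR8+ lymphocytes is normalized to isotype to give blocking %.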

human CCR8 [8] = target: T1, human CCR8; experiment: flow blocking, PBMC CCR8+CD3+; competitor PE-L263G8
Experimental: as §1, §2, §3

human CCR8 [9] = target: T1, human CCR8; experiment: flow blocking, PBMC CCR8+CD4+; competitor PE-AB14
In short: (§5)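 Human PBMC (100 μL suspension) were pre-blocked with 10 μg of each unlabelled anti-CCR8 antibody or isotype control. Cells were then stained 15 min in the dark with 0.25 μg of the PE-conjugated competitor antibody plus anti-CD4 or anti-CD3. Read-out by flow cytometry as MFI on CCR8+CD4+ or CCR8+CD3+ lymphocytes.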

human CCR8 [10] = target: T1, human CCR8; experiment: flow blocking, PBMC CCR8+CD3+; competitor PE-AB13
Experimental: as §1, §2, §3

human CCR8 [11] = target: T1, human CCR8; experiment: flow blocking, PBMC CCR8+CD4+; competitor PE-AB4
In short: as §4

human CCR8 [12] = target: T1, human CCR8; experiment: flow blocking, PBMC CCR8+CD4+; competitor PE-AB6
human CCR8 [13] = target: T1, human CCR8; experiment: flow blocking, PBMC CCR8+CD4+; competitor PE-AB2
In short: as §4

human CCR8 [14] = target: T1, human CCR8; experiment: flow blocking, PBMC CCR8+CD4+; competitor PE-AB10
In short: as §4

human CCR8 [15] = target: T1, human CCR8; experiment: flow blocking, PBMC CCR8+CD4+; competitor PE-AB12
In short: as §4

human CCR8 [16] = target: T1, human CCR8; experiment: flow blocking, PBMC CCR8+CD3+; competitor PE-AB7
Experimental: as §1, §2, §3

human CCR8 [17] = target: T1, human CCR8; experiment: flow blocking, PBMC CCR8+CD3+; competitor PE-AB11
Experimental: as §1, §2, §3

human CCR8 [18] = target: T1, human CCR8; experiment: flow blocking, PBMC CCR8+CD3+; competitor PE-AB8
Experimental: as §1, §2, §3

human CCR8 [19] = target: T1, human CCR8; experiment: flow blocking, PBMC CCR8+CD3+; competitor PE-AB15
Experimental: as §1, §2, §3

human CCR8 [20] = target: T1, human CCR8; experiment: flow blocking, PBMC CCR8+CD4+; competitor PE-AB5
In short: as §4

human CCR8 [21] = target: T1, human CCR8; experiment: flow blocking, PBMC CCR8+CD4+; competitor PE-AB13
In short: as §5

human CCR8 [22] = target: T1, human CCR8; experiment: flow blocking, PBMC CCR8+CD4+; competitor PE-AB1
In short: as §4

human CCR8 [23] = target: T1, human CCR8; experiment: flow blocking, PBMC CCR8+CD4+; competitor PE-433H
In short: as §5

human CCR8 [24] = target: T1, human CCR8; experiment: flow blocking, PBMC CCR8+CD4+; competitor PE-AB15
In short: as §4

human CCR8 [25] = target: T1, human CCR8; experiment: flow blocking, PBMC CCR8+CD4+; competitor PE-AB3
In short: as §4

human CCR8 [26] = target: T1, human CCR8; experiment: flow blocking, PBMC CCR8+CD3+; competitor PE-AB12
Experimental: as §1, §2, §3

human CCR8 [27] = target: T1, human CCR8; experiment: flow blocking, PBMC CCR8+CD3+; competitor PE-AB14
Experimental: as §1, §2, §3

[28] = target: T2, human chemokine (C-C motif) receptor 8 (CCR8) (human, UniProt P51685 1-355); experiment: flow cytometry blocking, PBMC CCR8+ CD4+ cells; competitor PE-AB10 (its MFI is read)
T2 construct: On human peripheral blood lymphocytes / PBMC (native) or on human CCR8 GFP-transfected Ba/F3 cells; also called hCCR8; human CCR8
Experimental: as §1, §2, §3

[29] = target: T2, human chemokine (C-C motif) receptor 8 …; experiment: flow cytometry blocking, PBMC CCR8+ CD4+ cells; competitor PE-ABII (its MFI is read)
Experimental: as §1, §2, §3

[30] = target: T2, human chemokine (C-C motif) receptor 8 …; experiment: flow cytometry blocking, PBMC CCR8+ CD4+ cells; competitor PE-AB5 (its MFI is read)
Experimental: as §1, §2, §3

[31] = target: T2, human chemokine (C-C motif) receptor 8 …; experiment: flow cytometry blocking, PBMC CCR8+ CD4+ cells; competitor PE-AB1 (its MFI is read)
Experimental: as §1, §2, §3

[32] = target: T2, human chemokine (C-C motif) receptor 8 …; experiment: flow cytometry blocking, PBMC CCR8+ CD4+ cells; competitor PE-AB2 (its MFI is read)
Experimental: as §1, §2, §3

[33] = target: T2, human chemokine (C-C motif) receptor 8 …; experiment: flow cytometry blocking, PBMC CCR8+ CD4+ cells; competitor PE-AB13 (its MFI is read)
Experimental: as §1, §2, §3

[34] = target: T2, human chemokine (C-C motif) receptor 8 …; experiment: flow cytometry blocking, PBMC CCR8+ CD4+ cells; competitor PE-AB12 (its MFI is read)
Experimental: as §1, §2, §3

[35] = target: T2, human chemokine (C-C motif) receptor 8 …; experiment: flow cytometry blocking, PBMC CCR8+ CD4+ cells; competitor PE-AB4 (its MFI is read)
Experimental: as §1, §2, §3

[36] = target: T2, human chemokine (C-C motif) receptor 8 …; experiment: cell-based or functional assay
[37] = target: T2, human chemokine (C-C motif) receptor 8 …; experiment: cell-based or functional assay; remark: listed apart in the source
[38] = target: T2, human chemokine (C-C motif) receptor 8 …; experiment: flow cytometry blocking, PBMC CCR8+ CD4+ cells; competitor PE-AB11 (its MFI is read)
Experimental: as §1, §2, §3

[39] = target: T2, human chemokine (C-C motif) receptor 8 …; experiment: flow cytometry blocking, PBMC CCR8+ CD4+ cells; competitor PE-AB14 (its MFI is read)
Experimental: as §1, §2, §3

[40] = target: T2, human chemokine (C-C motif) receptor 8 …; experiment: flow cytometry blocking, PBMC CCR8+ CD4+ cells; competitor PE-AB6 (its MFI is read)
Experimental: as §1, §2, §3

[41] = target: T2, human chemokine (C-C motif) receptor 8 …; experiment: flow cytometry blocking, PBMC CCR8+ CD4+ cells; competitor PE-AB15 (its MFI is read)
Experimental: as §1, §2, §3

[42] = target: T2, human chemokine (C-C motif) receptor 8 …; experiment: flow cytometry blocking, PBMC CCR8+ CD4+ cells; competitor PE-AB3 (its MFI is read)
Experimental: as §1, §2, §3

human CCR8 [43] = target: T1, human CCR8; experiment: flow, PBMC CCR8+CD3+; PE-433H staining after isotype block
human CCR8 [44] = target: T1, human CCR8; experiment: flow, PBMC CCR8+CD4+; PE-433H staining after isotype block

T1 sequence (P51685 whole entry): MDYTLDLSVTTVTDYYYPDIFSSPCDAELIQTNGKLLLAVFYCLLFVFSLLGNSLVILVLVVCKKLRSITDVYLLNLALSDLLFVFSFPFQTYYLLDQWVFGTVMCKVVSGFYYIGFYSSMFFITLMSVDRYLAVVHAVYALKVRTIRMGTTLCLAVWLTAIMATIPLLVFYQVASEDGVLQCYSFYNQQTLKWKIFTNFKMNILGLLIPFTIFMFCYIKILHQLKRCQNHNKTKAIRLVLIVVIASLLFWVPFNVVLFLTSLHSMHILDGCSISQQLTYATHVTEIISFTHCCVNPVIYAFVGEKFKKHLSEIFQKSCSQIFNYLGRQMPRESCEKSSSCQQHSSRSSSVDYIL
T2 sequence (P51685 whole entry): as above
human chemokine (C-C motif) receptor 8 (CCR8) (human), sequence (P51685 whole entry): as above

% Blocking [2]: 0% | % Blocking (human CCR8 [3]): 0% | % Blocking (human CCR8 [4]): 0% | % Blocking (human CCR8 [5]): 0% | % Blocking (human CCR8 [6]): 0% | % Blocking (human CCR8 [7]): 0% | % Blocking (human CCR8 [8]): 0% | % Blocking (human CCR8 [9]): 0% | % Blocking (human CCR8 [10]): 0% | % Blocking (human CCR8 [11]): 0% | % Blocking (human CCR8 [12]): 0% | % Blocking (human CCR8 [13]): 0% | % Blocking (human CCR8 [14]): 0% | % Blocking (human CCR8 [15]): 0% | % Blocking (human CCR8 [16]): 0% | % Blocking (human CCR8 [17]): 0% | % Blocking (human CCR8 [18]): 0% | % Blocking (human CCR8 [19]): 0% | % Blocking (human CCR8 [20]): 0% | % Blocking (human CCR8 [21]): 0% | % Blocking (human CCR8 [22]): 0% | % Blocking (human CCR8 [23]): 0% | % Blocking (human CCR8 [24]): 0% | % Blocking (human CCR8 [25]): 0% | % Blocking (human CCR8 [26]): 0% | % Blocking (human CCR8 [27]): 0%
Molecule: isotype control (antibody)

% Blocking [28]: 34.5% | MFI [28]: 661 | % Blocking [29]: 16.6% | MFI [29]: 924 | % Blocking [30]: -36% | MFI [30]: 1020 | % Blocking [31]: -48.1% | MFI [31]: 971 | % Blocking [32]: -53.5% | MFI [32]: 1030 | % Blocking [33]: 7.44% | MFI [33]: 867 | % Blocking [34]: 0.83% | MFI [34]: 968 | % Blocking [35]: -53.4% | MFI [35]: 1050 | % hCCR8-Ba/F3 - THP-1 complexes [36]: 1.12% | ratio of Target/Control cells after AB11 plus complement [37]: 0.103 | % Blocking [38]: 25.3% | MFI [38]: 674 | % Blocking [39]: -1190% | MFI [39]: 11400 | % Blocking [40]: -36.2% | MFI [40]: 1070 | % Blocking [41]: -75.1% | MFI [41]: 1390 | % Blocking [42]: -61.7% | MFI [42]: 1120
B1: AB11 (antibody, V domains shown)
VH: EVQLVESGGGLVQPKGSLKLSCAASGFAFNTYAMNWVRQAPGKGLEWIARLRSKSNFYATYYADSVKDRFTISRDDSQSMLYLQMNNLKTEDTAVYYCVRGRELGPSYAMDYWGQGTSVTVSS
VL: DIVMTQAAPSVPVTPGESVSISCRSSKSLLHSNGNTYLYWFLQRPGQSPQLLIYRMSNLASGVPDRFSGSGSGTAFTLRISRVEAEDVGVYYCMQHLEYPYTFGGGTKLEIK
notes: Hybridoma monoclonal; also called antibody 11; clone 11

Further lines, the molecule ahead of its results:

Molecule: Commercial L263G8 (antibody)
MFI (human CCR8 [1]): 674

B2: Commercial 433H (antibody, from another filing, V domains shown)
VH: EVQLVETGGGLVQPKGSLRLSCAASGFPFNTFAMNWVRQAPGKGLEWLARIRSKSNNYATYYADSVKDRFTISRDDSRRMLYLLMNNVKFEDTAIYYCVRGKENNYGYAMDYWGQGTSVTVSS
VL: DIVMTQAAPSVPVTPGESVSISCRSSQSLLHSNGNTYLYWFLQRPGQSPQLLIYRMSNLASGVPDRFSGSGSGTAFTLRISRVEAEDVGVYYCMQHLEYPFTFGIGTKLELKR
MFI (human CCR8 [43]): 886 | % Positive cells (human CCR8 [44]): 1.76%
